Common to all, as to conditions: protein: recombinant; tags: His-tag (pET-3a); chain copies: 2; blunt
For series [1], the target named is T1, CRP-MTB (cAMP receptor protein, wild type) (Mycobacterium tuberculosis, UniProt P9WMH3 1-224).
T1 sequence: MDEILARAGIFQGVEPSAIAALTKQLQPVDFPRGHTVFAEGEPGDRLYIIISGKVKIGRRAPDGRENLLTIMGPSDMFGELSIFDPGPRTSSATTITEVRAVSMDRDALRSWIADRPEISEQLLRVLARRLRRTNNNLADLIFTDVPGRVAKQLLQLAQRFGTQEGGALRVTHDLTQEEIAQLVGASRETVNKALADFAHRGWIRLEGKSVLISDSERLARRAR
Briefly: fluorescence anisotropy; 1 mM cAMP. (In fluorescence polarisation assays a small probe gives low polarisation when free and higher when bound to something large.)

Series [2] addresses T1, CRP-MTB (cAMP receptor protein, wild …). Briefly: fluorescence anisotropy; no cAMP (apo).
The target is the same in series [3]. Put plainly: fluorescence anisotropy; 0.1 mM cAMP.

These results are taken from paper PMC8026907.

B1: SerC promoter 20-bp, fluorescein (dsDNA)
DNA 1: AGTGTGAACAAGCTCACATG
DNA 2: CATGTGAGCTTGTTCACACT
Turning to B1, the Ka was 0.5 ± 0.1 1e8 M-1 in series [1] and 0.12 ± 0.02 1e8 M-1 in series [2].

B2: SerC promoter 32-bp, fluorescein (dsDNA)
DNA 1: GCGCGTAGTGTGAACAAGCTCACATGCAAGCC
DNA 2: GGCTTGCATGTGAGCTTGTTCACACTACGCGC
On to B2, for which the Ka was 4.5 ± 1.2 1e8 M-1 in series [3], 4.2 ± 1.7 1e8 M-1 in series [1] and 2.3 ± 0.9 1e8 M-1 in series [2].
